This is an account of results in paper PMC4109839, “Fibrin binds to collagen and provides a bridge for αVβ3 integrin-dependent contraction of collagen gels” (Biochemical Journal, 2014).

Experiment [1] has as its target T1, PureCol native bovine dermal collagen type I (bovine, UniProt P02453 162-1217; P02465 80-1117).
T1 construct: collagen α1(I) chain, bovine (Bos taurus), from dermis; collagen α2(I) chain, bovine; Native triple helix; Prolines are in part hydroxylated in the tissue protein; also called Col I; native Col I; source: bought: Advanced Biomatrix (PureCol, 3 mg/ml)
Put plainly: ELISA; solid-phase assay: plates coated with 10 μg/ml native or denatured Col I, blocked with 2% BSA; biotinylated fibrinogen in 0.5% BSA in Ca2+- and Mg2+-free PBS pH 7.4, 2 h at 37°C; avidin-alkaline phosphatase. The settings on record: both partners purified. In general terms: In an ELISA, binding on a coated surface is turned into a signal by an enzyme label.

In experiment [2] the target is T1, PureCol native bovine dermal collagen …. Put plainly: SPR; Col I (PureCol bovine dermal and mouse-tail tendon) coupled to a BiaCore C1 chip; freshly dissolved, filtered fibrinogen in PBS passed over the chip, then wash-out. As to conditions: both partners purified. (In general: In SPR one partner is held on a chip, and binding of the other changes the refractive index at the surface.)

T1 sequence (P02453 162-1217, chain 1 of 2): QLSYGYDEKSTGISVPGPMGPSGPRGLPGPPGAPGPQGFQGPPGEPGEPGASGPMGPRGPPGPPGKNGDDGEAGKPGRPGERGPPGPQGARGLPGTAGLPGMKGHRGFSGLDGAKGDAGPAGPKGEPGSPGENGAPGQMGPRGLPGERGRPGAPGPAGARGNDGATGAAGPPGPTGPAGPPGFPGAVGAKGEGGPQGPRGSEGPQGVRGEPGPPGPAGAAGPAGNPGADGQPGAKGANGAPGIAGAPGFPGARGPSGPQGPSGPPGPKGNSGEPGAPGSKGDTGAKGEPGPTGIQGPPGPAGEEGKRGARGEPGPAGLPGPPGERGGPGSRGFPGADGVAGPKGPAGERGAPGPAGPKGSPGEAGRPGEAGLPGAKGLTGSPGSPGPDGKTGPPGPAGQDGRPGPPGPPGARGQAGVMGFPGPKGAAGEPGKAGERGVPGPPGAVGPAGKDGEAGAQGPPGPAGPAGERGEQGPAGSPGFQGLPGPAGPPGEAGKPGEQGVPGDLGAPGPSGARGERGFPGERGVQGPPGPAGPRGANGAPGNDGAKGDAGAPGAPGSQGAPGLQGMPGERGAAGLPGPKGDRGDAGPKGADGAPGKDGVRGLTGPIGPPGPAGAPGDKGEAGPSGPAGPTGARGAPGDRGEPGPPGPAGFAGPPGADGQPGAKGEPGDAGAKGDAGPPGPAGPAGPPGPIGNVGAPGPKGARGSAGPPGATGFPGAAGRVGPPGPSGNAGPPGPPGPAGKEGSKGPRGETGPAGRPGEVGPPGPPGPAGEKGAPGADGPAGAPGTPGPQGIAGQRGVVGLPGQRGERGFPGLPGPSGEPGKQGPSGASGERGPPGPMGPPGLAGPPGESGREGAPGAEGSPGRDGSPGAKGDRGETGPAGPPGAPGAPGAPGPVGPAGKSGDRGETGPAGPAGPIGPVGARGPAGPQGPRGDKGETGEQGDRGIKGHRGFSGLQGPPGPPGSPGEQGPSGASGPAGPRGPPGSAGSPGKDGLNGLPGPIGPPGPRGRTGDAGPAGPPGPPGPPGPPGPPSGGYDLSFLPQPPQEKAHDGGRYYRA
T1 sequence (P02465 80-1117, chain 2 of 2): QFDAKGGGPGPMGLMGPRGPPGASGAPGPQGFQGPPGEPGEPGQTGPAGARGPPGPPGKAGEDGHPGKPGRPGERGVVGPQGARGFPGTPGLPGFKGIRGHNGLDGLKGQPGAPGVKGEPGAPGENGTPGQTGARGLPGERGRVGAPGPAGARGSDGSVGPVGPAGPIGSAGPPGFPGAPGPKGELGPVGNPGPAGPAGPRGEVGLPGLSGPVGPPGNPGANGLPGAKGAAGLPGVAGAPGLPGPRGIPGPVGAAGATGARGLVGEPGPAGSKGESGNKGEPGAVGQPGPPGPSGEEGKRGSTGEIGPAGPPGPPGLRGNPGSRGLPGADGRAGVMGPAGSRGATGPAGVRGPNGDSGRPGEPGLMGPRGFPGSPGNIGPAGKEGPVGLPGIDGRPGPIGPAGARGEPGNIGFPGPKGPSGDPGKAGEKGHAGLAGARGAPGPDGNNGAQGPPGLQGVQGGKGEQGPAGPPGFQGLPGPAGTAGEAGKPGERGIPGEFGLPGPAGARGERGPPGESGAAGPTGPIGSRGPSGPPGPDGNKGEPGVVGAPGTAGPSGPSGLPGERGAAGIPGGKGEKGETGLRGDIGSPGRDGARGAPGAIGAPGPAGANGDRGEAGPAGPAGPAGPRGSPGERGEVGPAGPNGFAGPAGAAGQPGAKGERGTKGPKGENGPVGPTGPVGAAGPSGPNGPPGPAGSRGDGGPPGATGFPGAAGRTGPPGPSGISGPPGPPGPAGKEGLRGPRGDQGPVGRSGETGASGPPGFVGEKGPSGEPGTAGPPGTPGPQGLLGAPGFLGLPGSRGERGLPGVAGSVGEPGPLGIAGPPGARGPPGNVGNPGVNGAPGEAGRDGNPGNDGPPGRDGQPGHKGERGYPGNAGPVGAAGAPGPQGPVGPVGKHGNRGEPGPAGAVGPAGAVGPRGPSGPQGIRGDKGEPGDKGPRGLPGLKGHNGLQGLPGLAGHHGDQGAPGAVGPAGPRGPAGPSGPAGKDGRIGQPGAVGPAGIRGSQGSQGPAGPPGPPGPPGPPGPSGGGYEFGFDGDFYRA

B1: biotinylated human plasma fibrinogen (natural protein)
chain 1: ADSGEGDFLAEGGGVRGPRVVERHQSACKDSDWPFCSDEDWNYKCPSGCRMKGLIDEVNQDFTNRINKLKNSLFEYQKNNKDSHSLTTNIMEILRGDFSSANNRDNTYNRVSEDLRSRIEVLKRKVIEKVQHIQLLQKNVRAQLVDMKRLEVDIDIKIRSCRGSCSRALAREVDLKDYEDQQKQLEQVIAKDLLPSRDRQHLPLIKMKPVPDLVPGNFKSQLQKVPPEWKALTDMPQMRMELERPGGNEITRGGSTSYGTGSETESPRNPSSAGSWNSGSSGPGSTGNRNPGSSGTGGTATWKPGSSGPGSTGSWNSGSSGTGSTGNQNPGSPRPGSTGTWNPGSSERGSAGHWTSESSVSGSTGQWHSESGSFRPDSPGSGNARPNNPDWGTFEEVSGNVSPGTRREYHTEKLVTSKGDKELRTGKEKVTSGSTTTTRRSCSKTVTKTVIGPDGHKEVTKEVVTSEDGSDCPEAMDLGTLSGIGTLDGFRHRHPDEAAFFDTASTGKTFPGFFSPMLGEFVSETESRGSESGIFTNTKESSSHHPGIAEFPSRGKSSSYSKQFTSSTSYNRGDSTFESKSYKMADEAGSEADHEGTHSTKRGHAKSRPV
chain 2: QGVNDNEEGFFSARGHRPLDKKREEAPSLRPAPPPISGGGYRARPAKAAATQKKVERKAPDAGGCLHADPDLGVLCPTGCQLQEALLQQERPIRNSVDELNNNVEAVSQTSSSSFQYMYLLKDLWQKRQKQVKDNENVVNEYSSELEKHQLYIDETVNSNIPTNLRVLRSILENLRSKIQKLESDVSAQMEYCRTPCTVSCNIPVVSGKECEEIIRKGGETSEMYLIQPDSSVKPYRVYCDMNTENGGWTVIQNRQDGSVDFGRKWDPYKQGFGNVATNTDGKNYCGLPGEYWLGNDKISQLTRMGPTELLIEMEDWKGDKVKAHYGGFTVQNEANKYQISVNKYRGTAGNALMDGASQLMGENRTMTIHNGMFFSTYDRDNDGWLTSDPRKQCSKEDGGGWWYNRCHAANPNGRYYWGGQYTWDMAKHGTDDGVVWMNWKGSWYSMRKMSMKIRPFFPQQ
chain 3: YVATRDNCCILDERFGSYCPTTCGIADFLSTYQTKVDKDLQSLEDILHQVENKTSEVKQLIKAIQLTYNPDESSKPNMIDAATLKSRKMLEEIMKYEASILTHDSSIRYLQEIYNSNNQKIVNLKEKVAQLEAQCQEPCKDTVQIHDITGKDCQDIANKGAKQSGLYFIKPLKANQQFLVYCEIDGSGNGWTVFQKRLDGSVDFKKNWIQYKEGFGHLSPTGTTEFWLGNEKIHLISTQSAIPYALRVELEDWNGRTSTADYAMFKVGPEADKYRLTYAYFAGGDAGDAFDGFDFGDDPSDKFFTSHNGMQFSTWDNDNDKFEGNCAEQDGSGWWMNKCHAGHLNGVYYQGGTYSKASTPNGYDNGIIWATWKTRWYSMKKTTMKIIPFNRLTIGEGQQHHLGGAKQAGDV
modifications: biotin (biotin N-hydroxysuccinimide ester; which chains and residues not stated) | biotin (biotin N-hydroxysuccinimide ester; which chains and residues not stated) | biotin (biotin N-hydroxysuccinimide ester; which chains and residues not stated)
For orientation: EC50 means the midpoint of the concentration-response curve. A high value points to lower potency in that assay. On to B1, for which the EC50 in experiment [1] is around 70 nM.

B2: human plasma fibrinogen (natural protein)
chain 1: ADSGEGDFLAEGGGVRGPRVVERHQSACKDSDWPFCSDEDWNYKCPSGCRMKGLIDEVNQDFTNRINKLKNSLFEYQKNNKDSHSLTTNIMEILRGDFSSANNRDNTYNRVSEDLRSRIEVLKRKVIEKVQHIQLLQKNVRAQLVDMKRLEVDIDIKIRSCRGSCSRALAREVDLKDYEDQQKQLEQVIAKDLLPSRDRQHLPLIKMKPVPDLVPGNFKSQLQKVPPEWKALTDMPQMRMELERPGGNEITRGGSTSYGTGSETESPRNPSSAGSWNSGSSGPGSTGNRNPGSSGTGGTATWKPGSSGPGSTGSWNSGSSGTGSTGNQNPGSPRPGSTGTWNPGSSERGSAGHWTSESSVSGSTGQWHSESGSFRPDSPGSGNARPNNPDWGTFEEVSGNVSPGTRREYHTEKLVTSKGDKELRTGKEKVTSGSTTTTRRSCSKTVTKTVIGPDGHKEVTKEVVTSEDGSDCPEAMDLGTLSGIGTLDGFRHRHPDEAAFFDTASTGKTFPGFFSPMLGEFVSETESRGSESGIFTNTKESSSHHPGIAEFPSRGKSSSYSKQFTSSTSYNRGDSTFESKSYKMADEAGSEADHEGTHSTKRGHAKSRPVRGIHTSPLGKPSLSP
chain 2: B1 chain 2
chain 3: B1 chain 3
notes: fibrinogen Aα-chain, human, from plasma; fibrinogen Bβ-chain, human, from plasma; fibrinogen γ-chain, human, from plasma; In the gel contraction assays it was converted into fibrin by thrombin; also called unlabelled fibrinogen; non-biotinylated fibrinogen; source: bought: Sigma-Aldrich; copies: 2 + 2 + 2
In the case of B2, in experiment [2], the EC50 was around 10 nM.
